± gives the uncertainty stated by the source.
Assay: self-splicing fitness, log relative to wild type (ln ratio); higher = more splicing; Tetrahymena group I intron in knt gene, E. coli kanamycin selection, DiMSum; sequences stand for … in CUCUCU…GGAGGGAAAAGUUAUCAGGCAUGCACCUGGUAGCUAGUCUUUAAACCAAUAGAUUGCAUCGGUUUAAAAGGCAAGACCGUCAAAUUGCGGGAAAGGGGUCAACAGCCGUUCAGUACCAAGUCUCAGGGGAAACUUUGAGAUGGCCUUGCAAAGGGUAUGGUAAUAAGCUGACGGACAUGGUCCUAACCACGCAGCCAAGUCCUAAGUCAACAGAUCUUCUGUUGAUAUGGAUGCAGUUCACAGACUAAAUGUCGGUCGGGGAAGAUGUAUUCUUCUCAUAAGAUAUAGUCGGACCUCUCCUUAAUGGGAGCUAGCGGAUGAAGUGAUGCAACACUGGAGCCGCUGGGAACUAAUUUGUAUGCGAAAGUAUAUUGAUUAGUUUUGGAGUACUCGUGGUCG
How it was run: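 Pooled colonies went to amplicon sequencing on an Illumina HiSeq 2500 after six replicate transformations. The plates were LB agar with 100 μg/mL carbenicillin, 50 μM IPTG and 0.2% rhamnose, with or without 25 μg/mL kanamycin, incubated overnight at 37°C or 30°C. The E. coli BL21(DE3) library had all eight P1ex-region intron nucleotides randomised, the intron placed in the knt kanamycin-resistance gene on pET-22b(+). DiMSum fitness is the error-weighted combination of replicate fold changes, kanamycin against none, normalised to wild type.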

| Sequence | self-splicing fitness (ln) (30 °C) | self-splicing fitness (ln) (37 °C) |
| --- | --- | --- |
| GCCUAGCAAUAUUACGCCGU | -1.01 ± 0.15 | -0.292 ± 0.13 |
| GCCUAGCAAUAUUACGCGCG | -1.66 ± 0.23 | -1.18 ± 0.22 |
| GCCUAGCAAUAUUACGCUUA | -1.01 ± 0.1 | -0.807 ± 0.11 |
| GCCUAGCAAUAUUACGGGAA | -0.327 ± 0.091 | 0.158 ± 0.11 |
| GCCUAGCAAUAUUACGGGGA | -0.34 ± 0.067 | -0.0121 ± 0.09 |
| GCCUAGCAAUAUUACGGGUA | -0.787 ± 0.072 | 0.611 ± 0.067 |
| GCCUAGCAAUAUUACGGUGA | -1.09 ± 0.067 | -0.113 ± 0.073 |
| GCCUAGCAAUAUUACGUCAC | -3.49 ± 0.24 | -2.04 ± 0.22 |
| GCCUAGCAAUAUUACGUCUA | -3.26 ± 0.38 | -1.73 ± 0.2 |
| GCCUAGCAAUAUUACGUGCC | -3.38 ± 0.23 | -2.08 ± 0.23 |
| GCCUAGCAAUAUUACGUUGG | -3.78 ± 0.32 | -2.7 ± 0.25 |
| GCGAAGCAAUAUUACGACAA | -2.21 ± 0.18 | -0.672 ± 0.12 |
| GCGAAGCAAUAUUACGACAG | -3.79 ± 0.16 | -1.97 ± 0.21 |
| GCGAAGCAAUAUUACGACCU | -0.269 ± 0.073 | -0.573 ± 0.086 |
| GCGAAGCAAUAUUACGACGA | 0.0165 ± 0.18 | 0.163 ± 0.2 |
| GCGAAGCAAUAUUACGACUG | -1.72 ± 0.14 | -0.66 ± 0.14 |
| GCGAAGCAAUAUUACGAGCC | -3.17 ± 0.23 | – |
| GCGAAGCAAUAUUACGAGGU | -2.98 ± 0.2 | -2.76 ± 0.33 |
| GCGAAGCAAUAUUACGCAAA | -3.14 ± 0.22 | -2.07 ± 0.17 |
| GCGAAGCAAUAUUACGCGCC | – | -1.73 ± 0.4 |
| GCGAAGCAAUAUUACGCUUA | -2.1 ± 0.21 | -0.759 ± 0.2 |
| GCGAAGCAAUAUUACGGAGA | -2.88 ± 0.26 | -2.87 ± 0.44 |
| GCGAAGCAAUAUUACGGCAA | -0.999 ± 0.16 | -0.804 ± 0.16 |
| GCGAAGCAAUAUUACGGGUC | – | -0.782 ± 0.19 |
| GCGAAGCAAUAUUACGGUAU | -3.35 ± 0.18 | -0.774 ± 0.1 |

| Sequence | self-splicing fitness (ln) (30 °C) | self-splicing fitness (ln) (37 °C) |
| --- | --- | --- |
| GCGAAGCAAUAUUACGGUGU | -3.59 ± 0.14 | -2.66 ± 0.13 |
| GCGAAGCAAUAUUACGUCAA | -3.02 ± 0.19 | -2.05 ± 0.15 |
| GCGAAGCAAUAUUACGUCAC | – | -2.82 ± 0.3 |
| GCGAAGCAAUAUUACGUCAG | -3.41 ± 0.2 | -2.52 ± 0.26 |
| GCGAAGCAAUAUUACGUCCA | -1.16 ± 0.086 | -0.269 ± 0.11 |
| GCGAAGCAAUAUUACGUGUG | -2.61 ± 0.12 | -1.67 ± 0.11 |
| GCGAAGCAAUAUUACGUUGA | -2.59 ± 0.15 | -2.33 ± 0.14 |
| GCGAAGCAAUAUUACGUUGC | – | -1.98 ± 0.2 |
| GCGAAGCAAUAUUACGUUGU | -3.58 ± 0.21 | -2.58 ± 0.18 |
| GCGAAGCAAUAUUACGUUUC | -2.9 ± 0.2 | – |
| GCGCAGCAAUAUUACGAACG | -1.37 ± 0.11 | -0.329 ± 0.17 |
| GCGCAGCAAUAUUACGACGG | -1.13 ± 0.14 | -0.906 ± 0.17 |
| GCGCAGCAAUAUUACGAGAC | -3.09 ± 0.23 | -1.18 ± 0.18 |
| GCGCAGCAAUAUUACGAGUU | -0.986 ± 0.066 | -0.241 ± 0.1 |
| GCGCAGCAAUAUUACGCAGG | -3.86 ± 0.31 | -2.09 ± 0.34 |
| GCGCAGCAAUAUUACGCAUA | -0.539 ± 0.1 | -0.285 ± 0.1 |
| GCGCAGCAAUAUUACGCCAG | -2.22 ± 0.26 | -2.28 ± 0.47 |
| GCGCAGCAAUAUUACGCGAG | -1.66 ± 0.08 | -0.987 ± 0.089 |
| GCGCAGCAAUAUUACGCUGU | -3.56 ± 0.23 | -2.86 ± 0.34 |
| GCGCAGCAAUAUUACGGAAG | -1.64 ± 0.12 | -1.66 ± 0.11 |
| GCGCAGCAAUAUUACGGACA | -1.45 ± 0.085 | -0.514 ± 0.089 |
| GCGCAGCAAUAUUACGGAGU | -2 ± 0.11 | -0.744 ± 0.13 |
| GCGCAGCAAUAUUACGGCCA | -0.728 ± 0.12 | -1.03 ± 0.12 |
| GCGCAGCAAUAUUACGGCGU | -3.18 ± 0.33 | – |
| GCGCAGCAAUAUUACGGGCC | -2.96 ± 0.22 | -3.25 ± 0.27 |

From the supplement of paper PMC7877785
